A short description of this data set: amyloid nucleation score (Sup35N fusion, yeast selection) (log enrichment); library NNK3; higher = more nucleation; inactive = no reads after selection. In a few lines: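 On medium lacking adenine and uracil, psi-negative yeast expressing peptides of 20 random codons fused to Sup35N were grown 7 days at 30°C after a 24-hour induction with 100 μM copper sulfate. Illumina sequencing of input and output plasmid inserts gave the reads, and sequences under 100 input reads were excluded. The nucleation score is the DiMSum log enrichment of output over input reads, centred on the mode score of non-aggregating sequences.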

± gives the uncertainty stated by the source.

As for NGSGGWLNINNISEGRWRTG, the amyloid nucleation score result was “inactive”.

For the substance RGFNYKMLFSSDLD, the amyloid nucleation score result was “inactive”.

On to QFVAFVYYVCLLWYTGALLI, for which the amyloid nucleation score entry is “inactive”.

Consider EFGDFVDKASMLNIWDGIVG, for which the amyloid nucleation score result is “inactive”.

For EIIFSSLSIPLYMLEGI, the amyloid nucleation score entry is “inactive”.

For EEDKLFCGVMWQFG, the amyloid nucleation score entry was “inactive”.

For TLSIEMGQLDRERVGLNCKR, the amyloid nucleation score entry is “inactive”.

On to ICRLVLIWVPRSSGGVSSSR, for which the amyloid nucleation score entry is “inactive”.

In the case of TSMRKSACSWTLFSLR, the amyloid nucleation score entry is “inactive”.

With TRITMASSREV, the amyloid nucleation score result was “inactive”.

For FSGATSFNQIYAVRTSCLFV, the amyloid nucleation score was 1.01 ± 0.18.

Regarding FRYRLWAMRDVKHSYDFSLW, the amyloid nucleation score entry is “inactive”.

Consider VCIRTFLSLVSDCNACWSQL, for which the amyloid nucleation score entry is “inactive”.

With LLVCDREVAFAVACSFPCKR, the amyloid nucleation score entry was “inactive”.

As for FFDTTYLLNSGMNVVLDAYF, the amyloid nucleation score is 1.76 ± 0.097.

In the case of RALMGLVIKPKMSNTNLLDY, the amyloid nucleation score result is “inactive”.

Consider TWLIGHGAVIVRLYNFYMAI, for which the amyloid nucleation score result was “inactive”.

Consider LGVCVWQCLGMSIVNALKRL, for which the amyloid nucleation score result was “inactive”.

Substance VYCSSVSCLEVWCGPLHTVR had an amyloid nucleation score of 1.53 ± 0.081.

Take RVMSWMILNKYVKIPYCRHR: the amyloid nucleation score result was “inactive”.

ICMSMNMSADPGMPAIMFNY: the amyloid nucleation score result is “inactive”.

SCILCIFPVRLVFYMM: the amyloid nucleation score result is “inactive”.

In the case of TVRGYRLAHYIAAGYSCMSR, the amyloid nucleation score entry is “inactive”.

Turning to IYCPNIILLVKRHGVFQMFL, the amyloid nucleation score was 2.3 ± 0.072.

Consider LGFHTYRNLGKMHI, for which the amyloid nucleation score entry was “inactive”.

Consider VFLNWRGMNHSLRAFNIESQ, for which the amyloid nucleation score result was “inactive”.

On to WEDMVDNHE, for which the amyloid nucleation score turned out to be 1.32 ± 0.087.

For AIYRIWCYGA, the amyloid nucleation score was -0.088 ± 0.9.

With NTIHITTWDELVQLAQCDNL, the amyloid nucleation score result was “inactive”.

Regarding TLLRLHQVAY, the amyloid nucleation score result is “inactive”.

Take NMWWNGSETNCESRVFEIET: the amyloid nucleation score result is “inactive”.

For the substance VMCFYRLLNVIQWTTANVFG, the amyloid nucleation score entry was “inactive”.

ASKENCLIVFIVYQSIIETC: the amyloid nucleation score result was “inactive”.

As for QALGVGN, the amyloid nucleation score entry is “inactive”.

On to LDLDSNIGFISVLPF, for which the amyloid nucleation score result was “inactive”.

Turning to NRCKLNVAGHLCANRTRRFR, the amyloid nucleation score entry was “inactive”.

Regarding DMVLSEPFFFGLCFLDFWIF, the amyloid nucleation score entry is “inactive”.

With GATNDH, the amyloid nucleation score result is “inactive”.

On to TALAEQ, for which the amyloid nucleation score is -0.402 ± 1.3.

Consider GFLTKCALWKIWF, for which the amyloid nucleation score entry is “inactive”.

KFGHSVKSINLLNATTHVWI came in with an amyloid nucleation score of -0.126 ± 0.47.

Take TFGFRNRYFELLSVVIRHLA: the amyloid nucleation score entry was “inactive”.

Consider RREPQCYYWGAYCSVAASPA, for which the amyloid nucleation score result is “inactive”.

For YNGLVGLSNPCTIWESGWVW, the amyloid nucleation score result is “inactive”.

On to RSSSCLKTYLYLCGGWTSTF, for which the amyloid nucleation score worked out at 0.003 ± 0.26.

Regarding VSWNWATGLRFRPLSCYGLV, the amyloid nucleation score entry was “inactive”.

Regarding HAQCLMSIIEVS, the amyloid nucleation score is -0.029 ± 1.1.

As for ACCQTDRFRFEVALVGFVVG, the amyloid nucleation score entry was “inactive”.

Turning to CKEHLHQLFMGRCSTV, the amyloid nucleation score entry is “inactive”.

As to NDSLTLIWNGGSGYDVIKFE, the amyloid nucleation score result is “inactive”.

Regarding GNFSRLDSCFTVVRARVKCN, the amyloid nucleation score result is “inactive”.

On to VLIMYKSGRYVIGSLVLMCL, for which the amyloid nucleation score result is “inactive”.

On to GSVQTHFLDYGCSPNMDMLV, for which the amyloid nucleation score entry was “inactive”.

In the case of IYAGS, the amyloid nucleation score is -0.633 ± 0.96.

With ESWNRKVLRHVSVEWHWLV, the amyloid nucleation score result was “inactive”.

On to FILGWCGIYSTACPNTSTGT, for which the amyloid nucleation score entry is “inactive”.

Consider GVDCQASILHPCLFF, for which the amyloid nucleation score result was “inactive”.

With RLYNKSVTLAWRRFSGTKEL, the amyloid nucleation score entry is “inactive”.

On to YRMICPAIV, for which the amyloid nucleation score result is “inactive”.

For VHYYEE, the amyloid nucleation score result was “inactive”.

For IHFMCMWVSNWYVLLVLKE, the amyloid nucleation score entry is “inactive”.

For the substance WRLEL, the amyloid nucleation score result is “inactive”.

In turn, VFVKLQHVGMSLGSFFPGSM registered an amyloid nucleation score of 0.85 ± 0.19.

Turning to NNYVMA, the amyloid nucleation score was -0.231 ± 1.1.

In the case of FDSYRVYM, the amyloid nucleation score result is “inactive”.

CDVFVSY: the amyloid nucleation score entry was “inactive”.

Consider LCICFRNLLFEWCSLAE, for which the amyloid nucleation score entry is “inactive”.

Take VRVLWI: the amyloid nucleation score result was “inactive”.

For the substance LFGNSNRSGCSSLRQIGCLC, the amyloid nucleation score result was “inactive”.

In the case of LYWATGLGVNFKFNLCLDDA, the amyloid nucleation score result was “inactive”.

For the substance LSVCVRPWRNKTDVVGNGNK, the amyloid nucleation score result is “inactive”.

FMMFIL had an amyloid nucleation score of 1.42 ± 0.1.

Regarding VNYSLLRVNMFKYGSSYPIP, the amyloid nucleation score entry is “inactive”.

As for ISQFLGKFTFCNSALHFFGA, the amyloid nucleation score entry was “inactive”.

In the case of KTMVYGIQANDGWLVHGGFL, the amyloid nucleation score result was “inactive”.

Take ILAFLERYTLMWFRELYNAS: the amyloid nucleation score result was “inactive”.

Consider SACNAPSLNSTLIVT, for which the amyloid nucleation score entry is “inactive”.

With NHSES, the amyloid nucleation score result is “inactive”.

YPRDWGYALRLYYVEKKLR: the amyloid nucleation score entry was “inactive”.

Turning to YIYWQRTTSRVLERSVILNV, the amyloid nucleation score result is “inactive”.

The substance WVRSFMSLCFW yielded an amyloid nucleation score of 0.974 ± 0.089.

For NTCKRYGEVI, the amyloid nucleation score came to 2.2 ± 0.058.

Consider PVSYVLEEVEPRVRVSGPSG, for which the amyloid nucleation score entry was “inactive”.

Consider FGMPCFSSEYLLTCMVVLTG, for which the amyloid nucleation score result is “inactive”.

Consider SLTGRWSTVGRSMGLNTRGG, for which the amyloid nucleation score entry was “inactive”.

YFQTIVFRGTSGYCIVNQQV: the amyloid nucleation score is 1.97 ± 0.1.

Consider YFRAFMFETS, for which the amyloid nucleation score entry is “inactive”.

Turning to STLLRDEML, the amyloid nucleation score result was “inactive”.

For the substance IDCGGFDDIRVVSGDDEKMW, the amyloid nucleation score result is “inactive”.

In the case of LRGCVNAYLRYHTRGLVVLR, the amyloid nucleation score entry is “inactive”.

Regarding MFVVYLGYRRAVIDNDALED, the amyloid nucleation score result is “inactive”.

With RKTRDSCTMGSNTTWRVIFC, the amyloid nucleation score is 0.158 ± 0.49.

As to FDRYYVSPLRVLHQVGCEIL, the amyloid nucleation score entry is “inactive”.

MDSFRRDEYFKSLFVMLYLS: the amyloid nucleation score entry is “inactive”.

Substance IINATVCHCM yielded an amyloid nucleation score of 3.33 ± 0.077.

ELSTMIKSSCPPLIDRWLFP: the amyloid nucleation score result is “inactive”.

With HGWSS, the amyloid nucleation score entry is “inactive”.

As for FGIWCTIPWLLFRYSVDMFM, the amyloid nucleation score entry is “inactive”.

In the case of LKPELIGMCGEGGLIAFRSQ, the amyloid nucleation score result is “inactive”.

In the case of LLIDNVCSNIARVMHKVWLW, the amyloid nucleation score entry was “inactive”.

For YSESMRGNQ, the amyloid nucleation score result is “inactive”.

Consider MGPWCRKWIICLTRVSYRVG, for which the amyloid nucleation score entry is “inactive”.

Regarding IKNHIIVRIDFGLYGEEKDS, the amyloid nucleation score worked out at 0.399 ± 0.19.

As to HRWNMSWFGYFNLRLSVIET, the amyloid nucleation score result is “inactive”.

Consider GLVNCEHVWRIETKLVTPHL, for which the amyloid nucleation score is -0.764 ± 0.76.

On to WVVPSWCHSFPLMIIKRTCC, for which the amyloid nucleation score entry is “inactive”.

As to VLVVCSLSAC, the amyloid nucleation score entry is “inactive”.

Consider CLDHIAPKRKIQEVGLS, for which the amyloid nucleation score entry is “inactive”.

For VSLIVLVRSVCSCVTHSFYE, the amyloid nucleation score came out at 2.08 ± 0.097.

In the case of AGNIACVLSLCTYNARYRTR, the amyloid nucleation score turned out to be 3.19 ± 0.068.

As for QVVTSYGGSAVEDITAML, the amyloid nucleation score entry was “inactive”.

Regarding DGCSRVMFNASGAMRRKVAN, the amyloid nucleation score result is “inactive”.

VRMVKYCLTLSSRTYCLIIM: the amyloid nucleation score entry is “inactive”.

Turning to DAIPARVYYGCQFILCRNDL, the amyloid nucleation score turned out to be 2.85 ± 0.084.

Take FCIECYL: the amyloid nucleation score entry is “inactive”.

Consider LSWTYGRMGLRRLGGTGCYG, for which the amyloid nucleation score entry was “inactive”.

On to NTYRMMKGLSPVFMKMLCTP, for which the amyloid nucleation score entry was “inactive”.

As to SDNFLRNSLSQEYVRQTLGQ, the amyloid nucleation score entry was “inactive”.

With RIKCMEIFERPCYFLFCLHK, the amyloid nucleation score result is “inactive”.

Turning to NLFMMHV, the amyloid nucleation score entry was “inactive”.

LSDYIGAPFSSKSRDW: the amyloid nucleation score result was “inactive”.

With RVSSFMSLTVGRYGKLHRDS, the amyloid nucleation score result is “inactive”.

For LDLDVDNVSSDGKTWMGLV, the amyloid nucleation score result was “inactive”.

Consider TFWFD, for which the amyloid nucleation score result was “inactive”.

Turning to YSPDMRGMFIGGPDSVPLEG, the amyloid nucleation score result is “inactive”.

Consider NVFIHLFTILALGFHL, for which the amyloid nucleation score entry is “inactive”.

Take NCFEYLYPRVTDTELNRFFL: the amyloid nucleation score entry is “inactive”.

TSLGFSLSSSTDAFVEKFEG showed an amyloid nucleation score of 1.56 ± 0.077.

For the substance SSSRMFSSLFSVCIWVDTII, the amyloid nucleation score result was “inactive”.

Take FSLSQLLVCFWADSRSMKWT: the amyloid nucleation score entry is “inactive”.

The values are drawn from the supplement of paper PMC12042874.
